Among the targets are PARD3_1, Q8TEW0; MAGI3_3, Q5TCQ9; NHERF4_3, Q86UT5; NHERF2_1, Q15599; MAGI3_5, Q5TCQ9; LMO7, Q8WWI1; MAGI1_4, Q96QZ7; AHNAK2, Q8IVF2.
Common to all, as to experiment: holdup assay
Common to all, as to design: key: below the threshold = too weak to quantify, mostly under pKd 3.1 to 4
What all share (conditions): plain residues with an end cap or a label only (N-terminal biotin on a linker: ttds)

A further test concerns the target T1, PDZD2_4, O15018.
T1 sequence (O15018 723-823, limits assumed, looked up): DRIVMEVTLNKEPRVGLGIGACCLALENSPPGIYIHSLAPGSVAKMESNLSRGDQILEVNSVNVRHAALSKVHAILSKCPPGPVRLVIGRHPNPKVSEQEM

The next test has as its target T2, PDZD11, Q5EBL8.
T2 sequence (Q5EBL8 42-139, limits assumed, looked up): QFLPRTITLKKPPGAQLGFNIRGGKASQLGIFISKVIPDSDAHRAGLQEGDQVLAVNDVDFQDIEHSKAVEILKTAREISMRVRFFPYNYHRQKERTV

For another test, the target named is T3, SHROOM3, Q8TF72.
T3 sequence (Q8TF72 20-120, limits assumed, looked up): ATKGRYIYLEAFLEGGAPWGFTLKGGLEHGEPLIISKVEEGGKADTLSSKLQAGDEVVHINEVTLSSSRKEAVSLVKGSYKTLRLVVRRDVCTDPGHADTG

The target in another test is T4, PDZD2_3, O15018.
T4 sequence (O15018 581-682, limits assumed, looked up): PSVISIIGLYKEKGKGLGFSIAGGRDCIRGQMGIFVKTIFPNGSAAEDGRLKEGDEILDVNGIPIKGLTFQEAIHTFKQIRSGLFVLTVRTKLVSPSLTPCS

A further test addresses T5, MPDZ_13, O75970.
T5 sequence (O75970 1982-2070, limits assumed, looked up): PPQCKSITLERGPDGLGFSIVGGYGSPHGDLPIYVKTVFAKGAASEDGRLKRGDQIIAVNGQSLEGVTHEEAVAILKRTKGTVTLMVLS

For the next test, the target named is T6, MLLT4, P55196.
T6 sequence (P55196 1002-1103, limits assumed, looked up): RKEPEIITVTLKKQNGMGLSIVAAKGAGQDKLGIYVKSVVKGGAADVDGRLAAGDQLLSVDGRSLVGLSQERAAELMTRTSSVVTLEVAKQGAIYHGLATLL

The next test concerns the target T7, RGS12, O14924.
T7 sequence (O14924 17-108, limits assumed, looked up): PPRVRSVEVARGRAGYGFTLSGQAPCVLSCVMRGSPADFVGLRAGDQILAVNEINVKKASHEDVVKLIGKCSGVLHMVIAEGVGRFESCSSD

A further test addresses T8, MPDZ_3, O75970.
T8 sequence (O75970 372-473, limits assumed, looked up): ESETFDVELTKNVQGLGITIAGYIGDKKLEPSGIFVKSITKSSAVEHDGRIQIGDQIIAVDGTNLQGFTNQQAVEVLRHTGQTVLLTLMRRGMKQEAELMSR

For another test, the target named is T9, PARD6G, Q9BYG4.
T9 sequence (Q9BYG4 153-261, limits assumed, looked up): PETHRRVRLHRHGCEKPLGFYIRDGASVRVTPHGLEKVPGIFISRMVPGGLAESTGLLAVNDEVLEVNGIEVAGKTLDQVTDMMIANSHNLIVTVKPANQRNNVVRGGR

A further test addresses T10, PDZD7_2, Q9H5P4.
T10 sequence (Q9H5P4 205-303, limits assumed, looked up): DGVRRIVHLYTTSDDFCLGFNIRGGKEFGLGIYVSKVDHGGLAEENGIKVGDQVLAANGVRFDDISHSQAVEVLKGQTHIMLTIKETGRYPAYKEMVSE

The target in the next test is T11, GRIP1_1, Q9Y3R0.
T11 sequence (Q9Y3R0 48-146, limits assumed, looked up): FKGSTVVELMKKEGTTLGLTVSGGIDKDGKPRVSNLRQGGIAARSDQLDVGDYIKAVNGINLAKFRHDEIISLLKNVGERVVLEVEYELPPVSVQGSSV

In another test the target is T12, SIPA1L3, O60292.
T12 sequence (O60292 961-1052, limits assumed, looked up): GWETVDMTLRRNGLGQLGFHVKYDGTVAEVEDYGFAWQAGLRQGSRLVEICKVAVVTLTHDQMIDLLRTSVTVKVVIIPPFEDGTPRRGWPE

In a further test the target is T13, PDZD2_1, O15018.
T13 sequence (O15018 80-192, limits assumed, looked up): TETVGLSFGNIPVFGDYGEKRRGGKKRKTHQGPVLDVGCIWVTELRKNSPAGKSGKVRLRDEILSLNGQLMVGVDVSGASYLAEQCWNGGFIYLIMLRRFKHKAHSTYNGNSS

Another test concerns the target T14, SNTB2, Q13425.
T14 sequence (Q13425 110-208, limits assumed, looked up): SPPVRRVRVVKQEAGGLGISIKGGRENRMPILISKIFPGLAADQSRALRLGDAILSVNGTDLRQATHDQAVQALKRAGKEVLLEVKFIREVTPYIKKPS

The term pKd denotes −log10 of the Kd, conventionally taken in molar units.

NHERF2_1, Q15599, sequence (Q15599 9-91): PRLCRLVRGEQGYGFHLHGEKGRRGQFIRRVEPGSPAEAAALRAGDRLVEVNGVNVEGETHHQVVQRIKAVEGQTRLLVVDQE
PARD3_1, Q8TEW0, sequence (Q8TEW0 264-372): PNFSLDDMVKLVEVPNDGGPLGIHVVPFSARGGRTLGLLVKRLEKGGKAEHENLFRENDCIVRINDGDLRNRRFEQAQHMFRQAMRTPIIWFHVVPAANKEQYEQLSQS
MAGI3_5, Q5TCQ9, sequence (Q5TCQ9 847-941): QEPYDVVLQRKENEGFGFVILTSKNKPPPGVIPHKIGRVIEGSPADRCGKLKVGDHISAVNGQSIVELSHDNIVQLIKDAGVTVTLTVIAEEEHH
NHERF4_3, Q86UT5, sequence (Q86UT5 325-412): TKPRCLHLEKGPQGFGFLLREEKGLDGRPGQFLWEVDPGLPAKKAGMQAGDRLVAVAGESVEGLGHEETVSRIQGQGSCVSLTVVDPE
MAGI3_3, Q5TCQ9, sequence (Q5TCQ9 572-655): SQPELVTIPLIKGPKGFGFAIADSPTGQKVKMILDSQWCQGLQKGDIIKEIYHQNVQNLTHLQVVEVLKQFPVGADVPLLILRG
AHNAK2, Q8IVF2, sequence (Q8IVF2 108-193): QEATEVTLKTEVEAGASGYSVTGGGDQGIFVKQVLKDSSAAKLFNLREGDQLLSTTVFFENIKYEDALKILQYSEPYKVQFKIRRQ
LMO7, Q8WWI1, sequence (Q8WWI1 1037-1138): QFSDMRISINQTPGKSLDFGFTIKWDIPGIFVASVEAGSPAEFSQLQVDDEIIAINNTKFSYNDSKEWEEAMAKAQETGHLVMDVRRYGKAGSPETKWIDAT
MAGI1_4, Q96QZ7, sequence (Q96QZ7 other isoform, or with tags, fused parts or gaps): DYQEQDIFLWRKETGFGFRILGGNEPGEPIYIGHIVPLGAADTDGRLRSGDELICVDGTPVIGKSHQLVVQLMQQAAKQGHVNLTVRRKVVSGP

B1: NET1, Q7Z628 (peptide)
chain: SGGKRKETLV
In the case of B1, the pKd entry with PDZD2_4, O15018 was “below the threshold”; with PDZD11, Q5EBL8, “below the threshold”; with SHROOM3, Q8TF72, “below the threshold”; in the test with PARD3_1, Q8TEW0, “below the threshold”; with PDZD2_3, O15018, “below the threshold”; with MPDZ_13, O75970 it was 3.75. Also, the pKd with MLLT4, P55196 is 4.02; in the test with RGS12, O14924 it was “below the threshold”; with MPDZ_3, O75970 it was “below the threshold”; in the test with MAGI3_3, Q5TCQ9 it was “below the threshold”; in the test with PARD6G, Q9BYG4, “below the threshold”; with PDZD7_2, Q9H5P4, “below the threshold”. Also, the pKd entry in the test with GRIP1_1, Q9Y3R0 is “below the threshold”; with NHERF4_3, Q86UT5, “below the threshold”; with NHERF2_1, Q15599, “below the threshold”; in the test with SIPA1L3, O60292, “below the threshold”; with MAGI3_5, Q5TCQ9, 3.72; in the test with PDZD2_1, O15018, “below the threshold”.

B2: SLC15A5, A6NIM6 (peptide)
chain: SSIDLWETAL
Take B2: the pKd result with PDZD2_4, O15018 is “below the threshold”; with PDZD11, Q5EBL8, “below the threshold”; in the test with SHROOM3, Q8TF72 it was 4.81; with PARD3_1, Q8TEW0, “below the threshold”; in the test with PDZD2_3, O15018, 5.1; in the test with MPDZ_13, O75970, “below the threshold”. For the same molecule, the pKd entry is “below the threshold” with MLLT4, P55196; “below the threshold” with RGS12, O14924; 4.85 with MPDZ_3, O75970; “below the threshold” with MAGI3_3, Q5TCQ9; 5.54 with SNTB2, Q13425; “below the threshold” with PARD6G, Q9BYG4. Also, the pKd result was “below the threshold” with LMO7, Q8WWI1; “below the threshold” in the test with PDZD7_2, Q9H5P4; “below the threshold” with GRIP1_1, Q9Y3R0; “below the threshold” in the test with MAGI1_4, Q96QZ7; “below the threshold” with NHERF4_3, Q86UT5; 4.68 with NHERF2_1, Q15599. The pKd result with SIPA1L3, O60292 was “below the threshold”; with AHNAK2, Q8IVF2, “below the threshold”; with MAGI3_5, Q5TCQ9 it was 5.57; in the test with PDZD2_1, O15018, “below the threshold”.

B3: HPV82-E6, Q9IR59 (peptide)
chain: PPRQRSETQV
For the molecule B3, the pKd was 4.53 in the test with PDZD2_4, O15018; “below the threshold” with PDZD11, Q5EBL8; “below the threshold” with SHROOM3, Q8TF72; “below the threshold” with PARD3_1, Q8TEW0; “below the threshold” in the test with PDZD2_3, O15018; “below the threshold” with MPDZ_13, O75970. The pKd result with MLLT4, P55196 is on record as “below the threshold”; with RGS12, O14924 it was “below the threshold”; in the test with MPDZ_3, O75970 it was “below the threshold”; with MAGI3_3, Q5TCQ9, “below the threshold”; with SNTB2, Q13425, “below the threshold”; in the test with PARD6G, Q9BYG4, “below the threshold”. The pKd result with LMO7, Q8WWI1 is “below the threshold”; with PDZD7_2, Q9H5P4, “below the threshold”; in the test with GRIP1_1, Q9Y3R0, “below the threshold”; in the test with MAGI1_4, Q96QZ7, 4.2; with NHERF4_3, Q86UT5, “below the threshold”; in the test with NHERF2_1, Q15599, “below the threshold”. The pKd result with SIPA1L3, O60292 is recorded as “below the threshold”; with AHNAK2, Q8IVF2, “below the threshold”; with MAGI3_5, Q5TCQ9 it was “below the threshold”; with PDZD2_1, O15018 it was “below the threshold”.
